These results are taken from patent US6001988, “High affinity nucleic acid ligands to lectins” (NeXstar Pharmaceuticals, Inc.).

For data set [1], the target named is T1, L-selectin (LS-Rg) (Homo sapiens, UniProt P14151 P14151:39-332).
T1 chain: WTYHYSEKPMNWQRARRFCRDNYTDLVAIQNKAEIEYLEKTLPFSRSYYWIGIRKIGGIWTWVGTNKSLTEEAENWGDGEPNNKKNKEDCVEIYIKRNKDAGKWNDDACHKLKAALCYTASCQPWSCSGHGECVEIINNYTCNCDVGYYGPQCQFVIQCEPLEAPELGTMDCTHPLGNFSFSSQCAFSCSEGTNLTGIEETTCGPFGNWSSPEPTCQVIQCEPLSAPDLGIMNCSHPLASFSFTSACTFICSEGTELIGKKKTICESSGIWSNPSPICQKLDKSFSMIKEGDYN
As to the kind of experiment: filter; 4 C, HSMC (Ca/Mg); biphasic, fraction 0.68, low affinity Kd 60 nM; 1.0 nM at room temp. Particulars: tags: human IgG2 Fc fusion (provided by A. Varki); label: 32P; pseudoknot. The procedure: (§1) As described in SELEX Patent Applications, the nitrocellulose filter partitioning method was used to determine the affinity of RNA ligands for LS-Rg and for other proteins. Filter discs (nitrocellulose/cellulose acetate mixed matrix, 0.45 um pore size, Millipore) were placed on a vacuum manifold and washed with 2 ml of HSMC buffer under vacuum. Reaction mixtures, containing ^32P labeled RNA pools and unlabeled LS-Rg, were incubated in HSMC for 10–20 min at 4° C., room temperature or 37° C., filtered, and then immediately washed with 4 ml HSMC at the same temperature. The filters were air-dried and counted in a Beckman LS6500 liquid scintillation counter without fluor.
(§2) The dissociation constants for representative ligands from rounds 13 and 14, including all orphans, were determined by nitrocellulose filter binding experiments and are listed in Table IX. These calculations assume two RNA ligand binding sites per chimera. The affinity of random RNA cannot be reliably determined but is estimated to be approximately 10 µM.

The target in data set [2] is T2, E-selectin (ES-Rg) (Homo sapiens, UniProt P16581 P16581:22-556).
T2 chain: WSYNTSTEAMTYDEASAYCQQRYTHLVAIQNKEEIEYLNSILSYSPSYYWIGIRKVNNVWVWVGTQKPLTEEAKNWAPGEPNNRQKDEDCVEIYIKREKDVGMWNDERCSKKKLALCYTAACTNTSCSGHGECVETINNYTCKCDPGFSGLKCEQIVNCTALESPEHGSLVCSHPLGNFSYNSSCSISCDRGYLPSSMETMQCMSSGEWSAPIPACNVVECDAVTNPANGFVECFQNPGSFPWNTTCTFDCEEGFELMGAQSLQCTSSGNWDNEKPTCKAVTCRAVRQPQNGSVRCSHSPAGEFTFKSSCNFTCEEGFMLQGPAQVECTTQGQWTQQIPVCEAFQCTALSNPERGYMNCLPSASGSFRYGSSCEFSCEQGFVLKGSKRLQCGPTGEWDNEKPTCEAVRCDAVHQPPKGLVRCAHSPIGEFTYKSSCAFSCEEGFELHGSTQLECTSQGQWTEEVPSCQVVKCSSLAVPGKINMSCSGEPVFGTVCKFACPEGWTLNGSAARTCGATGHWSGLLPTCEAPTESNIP
Kind of data set: filter; 4 C, HSMC. The settings on record: tags: human IgG1 Fc fusion (provided by A. Varki), chain copies: 2, label: 32P. The method, then:
as §1
(§3) The affinity of L-selectin ligands to ES-Rg, PS-Rg and CD22β-Rg were determined by nitrocellulose partitioning. […] In general, a ligand's affinity for ES-Rg is 10^3-fold lower and that for PS-Rg is about 10^4-fold less than for LS-Rg. […] The specificity of oligonucleotide ligand binding contrasts sharply with the binding of cognate carbohydrates by the selectins and confirms the assertion that SELEX ligands will have greater specificity than carbohydrate ligands.
(§4) *Dissociation constants were determined at 4° C. in HSMC buffer.

Data set [3] concerns the target T3, wheat germ agglutinin (WGA) (Triticum vulgare, UniProt P10968 P10968:27-197).
T3 sequence: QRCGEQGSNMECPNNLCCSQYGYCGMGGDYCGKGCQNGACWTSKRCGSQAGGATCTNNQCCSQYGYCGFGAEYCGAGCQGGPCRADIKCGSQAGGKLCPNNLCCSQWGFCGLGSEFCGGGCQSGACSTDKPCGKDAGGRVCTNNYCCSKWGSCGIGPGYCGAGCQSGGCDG
Kind of data set: filter; HBSS, room temp; printed as 11.3, SEQ 54. Particulars: tags: free lectin, E Y Laboratories; label: 32P. The procedure: (§5) The specifically eluted fraction was processed for use in the following round. Fractions eluted from immobilized WGA were heated at 90° C. for 5 minutes in 1% SDS, 2% β-mercaptoethanol and extracted with phenol/chloroform. RNA was reverse transcribed into cDNA by AMV reverse transcriptase at 48° C. for 60 min in 50 mM Tris-Cl pH (8.3), 60 mM NaCl, 6 mM Mg(OAc)_2, 10 mM DTT, 100 pmol DNA primer, 0.4 mM each of dNTPs, and 0.4 unit/µl AMV RT. […] C) Nitrocellulose Filter Partitioning As described in SELEX Patent Applications, the nitrocellulose filter partitioning method was used to determine the affinity of RNA ligands for WGA and for other proteins. Filter discs (nitrocellulose/cellulose acetate mixed matrix, 0.45 µm pore size, Millipore; or pure nitrocellulose, 0.45 µm pore size, Bio-Rad) were placed on a vacuum manifold and washed with 4 ml of HBSS buffer under vacuum. Reaction mixtures, containing ^32P labeled RNA pools and unlabeled WGA, were incubated in HBSS for 10 min at room temperature, filtered, and then immediately washed with 4 ml HBSS. The filters were air-dried and counted in a Beckman LS6500 liquid scintillation counter without fluor. […]
The dissociation constants for representative members of families 1–9 and orphan ligands were determined by nitrocellulose filter binding experiments and are listed in Table III. […]

The target of data set [4] is T1, L-selectin (LS-Rg). Kind of data set: filter; room temp; 8.8 nM at 37 C. The settings on record: tags: human IgG2 Fc fusion (provided by A. Varki); label: 32P; hairpin.
Data set [5] deals with T4, P-selectin (PS-Rg) (Homo sapiens, UniProt P16109 P16109:42-321).
T4 chain: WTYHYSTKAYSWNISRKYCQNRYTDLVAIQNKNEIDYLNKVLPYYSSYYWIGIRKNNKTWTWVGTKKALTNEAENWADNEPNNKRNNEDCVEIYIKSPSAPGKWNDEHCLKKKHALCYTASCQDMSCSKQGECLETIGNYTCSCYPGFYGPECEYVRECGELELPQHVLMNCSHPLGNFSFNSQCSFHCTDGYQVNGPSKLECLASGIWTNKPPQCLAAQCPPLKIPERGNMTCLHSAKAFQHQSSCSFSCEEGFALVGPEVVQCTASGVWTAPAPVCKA
As to the kind of experiment: filter; 4 C, HSMC. Particulars: tags: human IgG1 Fc fusion (provided by A. Varki); chain copies: 2; label: 32P. The method, then:
as §1, §3, §4

The target in data set [6] is T1, L-selectin (LS-Rg). Kind of data set: filter; 4 C, HSMC; biphasic, fraction 0.65, low affinity Kd 14.5 nM; 142 nM at room temp. Particulars: tags: human IgG2 Fc fusion (provided by A. Varki); label: 32P. The method, then: as §1, §2
Data set [7] deals with T1, L-selectin (LS-Rg). Kind of data set: filter; 4 C, HSMC; 1.5 nM at room temp. Particulars: tags: human IgG2 Fc fusion (provided by A. Varki); label: 32P. The method, then:
as §1, §2

Data set [8] addresses T5, Ulex europaeus lectin UEA-II (Ulex europaeus, UniProt P22973 P22973:1-249).
T5 sequence: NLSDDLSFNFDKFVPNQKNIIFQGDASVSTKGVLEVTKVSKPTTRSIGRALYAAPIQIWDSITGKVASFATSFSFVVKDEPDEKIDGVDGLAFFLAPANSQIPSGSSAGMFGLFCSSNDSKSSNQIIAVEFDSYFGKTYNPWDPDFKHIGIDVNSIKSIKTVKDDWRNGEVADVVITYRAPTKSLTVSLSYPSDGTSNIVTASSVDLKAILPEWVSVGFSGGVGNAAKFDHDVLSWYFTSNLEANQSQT
As to the kind of experiment: filter; HBSS, room temp. The settings on record: tags: E Y Laboratories; label: 32P; hairpin. The method, then:
as §5, with “fluor. WGA is a homodimer, molecular weight 43.2 kD, with 4 GlcNAc binding sites per dimer. For affinity calculations, we assume one RNA ligand binding site per monomer (two per dimer).” for “fluor.”

Data set [9] concerns the target T3, wheat germ agglutinin (WGA). Kind of data set: filter; HBSS, room temp; 11.4 nM in Table IV. Particulars: tags: free lectin, E Y Laboratories; label: 32P; hairpin. The procedure:
as §5, with “fluor. WGA is a homodimer, molecular weight 43.2 kD, with 4 GlcNAc binding sites per dimer. For affinity calculations, we assume one RNA ligand binding site per monomer (two per dimer).” for “fluor.”

The target in data set [10] is T4, P-selectin (PS-Rg). As to the kind of experiment: filter; room temp, Ca/Mg buffer. The settings on record: tags: lectin, EGF and first two CRD domains fused to human IgG1 Fc (provided by A. Varki); chain copies: 2 (dimeric Fc chimera, inferred). The method, then: (§6) RNA was reverse transcribed into cDNA by AMV reverse transcriptase at 48° C. for 60 min in 50 mM Tris-Cl pH (8.3), 60 mM NaCl, 6 mM Mg(OAc)_2, 10 mM DTT, 100 pmol DNA primer, 0.4 mM each of dNTPs, and 0.4 unit/µl AMV RT. […] C) Nitrocellulose Filter Partitioning As described in SELEX Patent Applications, the nitrocellulose filter partitioning method was used to determine the affinity of RNA ligands for WGA and for other proteins. Filter discs (nitrocellulose/cellulose acetate mixed matrix, 0.45 µm pore size, Millipore; or pure nitrocellulose, 0.45 µm pore size, Bio-Rad) were placed on a vacuum manifold and washed with 4 ml of HBSS buffer under vacuum. Reaction mixtures, containing ^32P labeled RNA pools and unlabeled WGA, were incubated in HBSS for 10 min at room temperature, filtered, and then immediately washed with 4 ml HBSS. The filters were air-dried and counted in a Beckman LS6500 liquid scintillation counter without fluor. WGA is a homodimer, molecular weight 43.2 kD, with 4 GlcNAc binding sites per dimer. For affinity calculations, we assume one RNA ligand binding site per monomer (two per dimer). The monomer concentration is defined as 2 times the dimer concentration. The equilibrium dissociation constant, K_d, for an RNA pool or specific ligand that binds monophasically is given by the equation $$K_d=[P_f][R_f]/[RP]$$
(§7) The affinity of representative cloned ligands for LS-Rg, ES-Rg, PS-Rg, CD22β-Rg and WGA was determined by nitrocellulose partitioning and the results shown in Table XIV. The ligands are highly specific for L-selectin.
(§8) *Kds were determined at room temperature.

Data set [11] has as its target T2, E-selectin (ES-Rg). Kind of data set: filter; room temp, Ca/Mg buffer. The settings on record: tags: extracellular domain fused to human IgG1 Fc (provided by A. Varki); chain copies: 2 (dimeric Fc chimera, inferred). The procedure:
as §6, §7, §8

Data set [12] has as its target T1, L-selectin (LS-Rg). Kind of data set: filter; room temp; 2.1 nM at 37 C. Particulars: tags: human IgG2 Fc fusion (provided by A. Varki); label: 32P.
Data set [13] has as its target T1, L-selectin (LS-Rg). As to the kind of experiment: filter; 4 C, HSMC; 5.5 nM at room temp. Particulars: tags: human IgG2 Fc fusion (provided by A. Varki); label: 32P. The procedure:
as §1, §2

B1: F14.20 (ssRNA)
RNA: GGGAGGACGAUGCGGUAACAACAAUCAAGGCGGGUUCACCGCCCCAGUAUGAGUGCAGACGACUCGCCCGA
modifications: 2'-NH2 all C and U
The Kd is the constant that tells how readily two partners part at equilibrium. Read a high Kd as lower affinity. Regarding B1, the Kd in the data set with L-selectin (LS-Rg) [1] turned out to be 0.058 nM; with E-selectin (ES-Rg) [2] (pseudoknot) it was 70 nM.

B2: 11.30 (ssRNA)
RNA: GGGAAAAGCGAAUCAUACACAAGACGGUUGCUGAACAGAACGUGAGUCUUGGUGAGUCGCACAGAUUGUCCUGCUCCGCCAGAGACCAACCGAGAA
modifications: 2'-NH2 all C and U
B2 gave a Kd in data set [3] of 56 nM. In other words, the double-digit nanomolar range.

B3: 145 (ssDNA)
DNA: CTACCTACGATCTGACTAGCCCCCGAAGAACATTTTACAAGGTGCTAAACGTAAAATCAGGCTTACTCTCATGTAGTTCC
Consider B3, for which binding with L-selectin (LS-Rg) [4] was characterised by a dissociation constant (Kd) of 0.92 nM. This counts as sub-nanomolar.

B4: F14.53 (ssRNA)
RNA: GGGAGGACGAUGCGGUCCCAGAGUCCCGUGAUGCGAAGAAUCCAUUAGUACCAGACAGACGACUCGCCCGA
modifications: 2'-NH2 all C and U
Turning to B4, the Kd with P-selectin (PS-Rg) [5] is 5200 nM; in the data set with E-selectin (ES-Rg) [2], 355 nM; with L-selectin (LS-Rg) [6], 0.097 nM.

B5: F13.55 (ssRNA)
RNA: GGGAGGACGAUGCGGUGUCUCUCCUGACUUUUAUUCUUAGUUCGAGCUGUCCUGGCAGACGACUCGCCCGA
modifications: 2'-NH2 all C and U
With B5, the values for the dissociation constant (Kd) with L-selectin (LS-Rg) [7], with P-selectin (PS-Rg) [5] and with E-selectin (ES-Rg) [2] were 0.062 nM, 5800 nM and 49 nM, respectively.

B6: 6.8 (ssRNA)
RNA: GGGAAAAGCGAAUCAUACACAAGAAAGGGAUGGGAUUGGGACGAGCGGCCAAGACUCGGCGGGAACGAAGGGUCCGCUCCGCCAGAGACCAACCGAGAA
modifications: 2'-NH2 all C and U
On to B6, for which the Kd in [8] came to 4400 nM; in data set [9], 11 nM.

B7: 122 (ssDNA)
DNA: CTACCTACGATCTGACTAGCGCAACGTGGCCCCGTTTAGCTCATTTGACCGTTCCATCCGGCTTACTCTCATGTAGTTCC
For B7, the Kd was 420 nM in the data set with P-selectin (PS-Rg) [10], 400 nM with E-selectin (ES-Rg) [11] and 1.8 nM with L-selectin (LS-Rg) [12].

B8: F13.42 (ssRNA)
RNA: GGGAGGACGAUGCGGGAUGUAAAUGACAAAUGAACCUCGAAAGAUUGCACACUCCAGACGACUCGCCCGA
modifications: 2'-NH2 all C and U
In the case of B8, the Kd came out at 4400 nM with E-selectin (ES-Rg) [2] and 2 nM with L-selectin (LS-Rg) [13].
